# T1: FhuCB wild-type (Escherichia coli, UniProt P07821 1-265; P06972 1-660, red-tris-NTA 2nd generation dye on the His-tag)
# T1 construct: FhuC, ATPase subunit, Escherichia coli; whole operon cloned from the genome, FhuD gene deleted; thrombin site after the His-tag; FhuB, membrane subunit, Escherichia coli, 660 residues; also called FhuCB subcomplex; source: E. coli BL21(DE3) C43, purified (TALON, Superose 6 gel filtration) in LMNG; not shown: His-tag, N-terminal, kept; copies: 2 + 1
# T1 sequence (looked up) 1: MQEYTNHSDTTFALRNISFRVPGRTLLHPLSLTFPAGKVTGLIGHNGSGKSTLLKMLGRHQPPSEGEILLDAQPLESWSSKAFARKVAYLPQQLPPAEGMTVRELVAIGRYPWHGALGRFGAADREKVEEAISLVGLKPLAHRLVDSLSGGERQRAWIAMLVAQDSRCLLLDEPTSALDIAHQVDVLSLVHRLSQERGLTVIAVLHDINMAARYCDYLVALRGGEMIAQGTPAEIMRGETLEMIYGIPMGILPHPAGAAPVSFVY
# T1 sequence (looked up) 2: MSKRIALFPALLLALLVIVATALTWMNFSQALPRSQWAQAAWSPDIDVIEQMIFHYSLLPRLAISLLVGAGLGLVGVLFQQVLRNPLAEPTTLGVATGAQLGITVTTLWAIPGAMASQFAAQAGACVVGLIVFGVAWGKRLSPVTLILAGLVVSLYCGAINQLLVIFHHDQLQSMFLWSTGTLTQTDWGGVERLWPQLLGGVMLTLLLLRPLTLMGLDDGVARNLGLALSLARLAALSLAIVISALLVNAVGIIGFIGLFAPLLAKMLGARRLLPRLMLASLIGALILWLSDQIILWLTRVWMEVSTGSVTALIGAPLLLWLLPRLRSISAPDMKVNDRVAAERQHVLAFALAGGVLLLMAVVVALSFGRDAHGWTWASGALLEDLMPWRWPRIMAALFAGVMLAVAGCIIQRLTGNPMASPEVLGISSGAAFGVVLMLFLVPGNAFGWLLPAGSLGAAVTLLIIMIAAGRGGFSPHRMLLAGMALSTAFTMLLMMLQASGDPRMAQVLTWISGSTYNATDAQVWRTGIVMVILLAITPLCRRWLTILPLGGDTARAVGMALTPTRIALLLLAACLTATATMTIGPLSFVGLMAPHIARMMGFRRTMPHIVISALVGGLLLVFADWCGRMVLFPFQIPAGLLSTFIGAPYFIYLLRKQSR
# T2: FhuCB with FhuB R390A (Escherichia coli, UniProt P07821 1-265; P06972 1-660, R390A, red-tris-NTA 2nd generation dye on the His-tag)
# T2 construct: FhuC, ATPase subunit, Escherichia coli; as in Dm2; FhuB, membrane subunit, Escherichia coli, 660 residues; Mutant made on the FhuCB-pET15b construct by direct mutagenesis; source: E. coli BL21(DE3) C43, purified (TALON, Superose 6 gel filtration) in LMNG; not shown: His-tag, N-terminal, kept; copies: 2 + 1
# T2 sequence (looked up) 1: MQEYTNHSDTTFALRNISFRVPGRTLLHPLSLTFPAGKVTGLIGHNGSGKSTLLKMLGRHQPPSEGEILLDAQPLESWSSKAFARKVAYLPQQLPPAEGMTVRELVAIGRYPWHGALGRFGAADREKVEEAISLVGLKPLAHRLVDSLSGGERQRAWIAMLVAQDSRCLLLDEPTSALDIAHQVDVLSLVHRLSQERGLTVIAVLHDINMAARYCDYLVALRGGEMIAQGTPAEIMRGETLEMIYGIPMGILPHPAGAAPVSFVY
# T2 sequence (looked up) 2: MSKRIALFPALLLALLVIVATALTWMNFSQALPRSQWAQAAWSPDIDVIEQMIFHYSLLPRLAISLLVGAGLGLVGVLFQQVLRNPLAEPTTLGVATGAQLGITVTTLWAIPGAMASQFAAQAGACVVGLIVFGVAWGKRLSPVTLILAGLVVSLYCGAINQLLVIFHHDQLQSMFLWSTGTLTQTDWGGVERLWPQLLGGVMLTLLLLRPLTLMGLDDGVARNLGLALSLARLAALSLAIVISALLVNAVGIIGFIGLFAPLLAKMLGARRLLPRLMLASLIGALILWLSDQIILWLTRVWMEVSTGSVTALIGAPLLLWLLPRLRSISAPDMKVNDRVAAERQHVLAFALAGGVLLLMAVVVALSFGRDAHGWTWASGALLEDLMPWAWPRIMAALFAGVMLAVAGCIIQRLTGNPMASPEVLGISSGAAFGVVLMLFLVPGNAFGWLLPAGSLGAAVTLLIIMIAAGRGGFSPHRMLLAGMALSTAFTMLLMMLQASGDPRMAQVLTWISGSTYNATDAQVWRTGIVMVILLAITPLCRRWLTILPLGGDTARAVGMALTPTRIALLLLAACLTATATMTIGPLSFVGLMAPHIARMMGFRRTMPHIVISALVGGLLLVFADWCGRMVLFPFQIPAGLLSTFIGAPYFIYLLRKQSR
# T3: FhuCB with FhuB Q636A (Escherichia coli, UniProt P07821 1-265; P06972 1-660, Q636A, red-tris-NTA 2nd generation dye on the His-tag)
# T3 construct: FhuC, ATPase subunit, Escherichia coli; as in Dm2; FhuB, membrane subunit, Escherichia coli, 660 residues; Mutant made on the FhuCB-pET15b construct by direct mutagenesis; source: E. coli BL21(DE3) C43, purified (TALON, Superose 6 gel filtration) in LMNG; not shown: His-tag, N-terminal, kept; copies: 2 + 1
# T3 sequence (looked up) 1: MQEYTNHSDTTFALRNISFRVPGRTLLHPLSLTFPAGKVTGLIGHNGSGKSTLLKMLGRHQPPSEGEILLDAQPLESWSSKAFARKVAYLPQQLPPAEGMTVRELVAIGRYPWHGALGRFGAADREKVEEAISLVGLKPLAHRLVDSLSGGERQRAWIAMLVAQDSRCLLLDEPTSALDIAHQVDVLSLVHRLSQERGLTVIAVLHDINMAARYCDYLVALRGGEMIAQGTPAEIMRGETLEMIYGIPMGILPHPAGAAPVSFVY
# T3 sequence (looked up) 2: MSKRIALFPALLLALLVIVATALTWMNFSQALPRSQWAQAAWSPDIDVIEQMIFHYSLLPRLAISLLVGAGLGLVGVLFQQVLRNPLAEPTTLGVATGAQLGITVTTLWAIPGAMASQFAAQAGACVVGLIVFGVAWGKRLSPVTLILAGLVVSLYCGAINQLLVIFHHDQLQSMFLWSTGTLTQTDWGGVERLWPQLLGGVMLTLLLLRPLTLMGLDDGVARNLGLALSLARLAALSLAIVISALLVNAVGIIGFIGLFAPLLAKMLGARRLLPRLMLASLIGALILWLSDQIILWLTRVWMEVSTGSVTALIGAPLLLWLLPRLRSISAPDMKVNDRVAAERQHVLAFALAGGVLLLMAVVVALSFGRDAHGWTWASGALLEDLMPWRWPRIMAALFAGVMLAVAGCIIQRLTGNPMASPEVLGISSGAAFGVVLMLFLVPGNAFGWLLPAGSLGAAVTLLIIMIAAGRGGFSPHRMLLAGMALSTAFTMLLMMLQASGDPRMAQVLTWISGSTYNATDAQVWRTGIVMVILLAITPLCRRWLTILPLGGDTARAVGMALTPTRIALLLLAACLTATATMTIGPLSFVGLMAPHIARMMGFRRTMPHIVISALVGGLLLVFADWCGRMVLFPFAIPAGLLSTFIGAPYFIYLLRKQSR
# What was measured:
# Details in all cases: both partners purified
# FhuCB wild-type = molecular target: T1, FhuCB wild-type; assay: MST; 40 nM FhuCB in detergent, His-tag labelled with red-tris-NTA 2nd generation dye; serial dilution of 30 μM FhuD without substrate; no ATP-Mg; Monolith NT.115pico, 20% LED power, medium MST power
# FhuCB with FhuB R390A = molecular target: T2, FhuCB with FhuB R390A; assay: MST; 40 nM FhuCB (wild type or FhuB mutant) in detergent, His-tag labelled with red-tris-NTA 2nd generation dye; serial dilution of 1.6 μM FhuD with substrate ferrichrome; with ATP-Mg; Monolith NT.115pico, 20% LED power, medium MST power
# FhuCB with FhuB Q636A = molecular target: T3, FhuCB with FhuB Q636A; assay: as above
binder,measurement,setting,value
"FhuD (natural protein, Escherichia coli, In 'FhuD-ferrichrome' the protein was loaded with the small molecule ferrichrome; also called FhuD-ferrichrome (when loaded with ferrichrome)) AAIDPNRIVALEWLPVELLLALGIVPYGVADTINYRLWVSEPPLPDSVIDVGLRTEPNLELLTEMKPSFMVWSAGYGPSPEMLARIAPGRGFNFSDGKQPLAMARKSLTEMADLLNLQSAAETHLAQYEDFIRSMKPRFVKRGARPLLLTTLIDPRHMLVFGPNSLFQEILDEYGIPNAWQGETNFWGSTAVSIDRLAAYKDVDVLCFDHDNSKDMDALMATPLWQAMPFVRAGRFQRVPAVWFYGATLSAMHFVRVLDNAIGGKA",Kd,FhuCB wild-type,1620 nM
same,Kd,FhuCB with FhuB R390A,75.8 nM
same,Kd,FhuCB with FhuB Q636A,90.2 nM
